Values of other authors in publication PMC3074115.

Legend:
[1] = target: Ferrochelatase (Homo sapiens) (UniProt P22830); experiment: ITC
[2] = target: IscU (Escherichia coli) (UniProt P0ACD4); experiment: ITC and SPR
IscU (Escherichia coli), sequence (P0ACD4 whole entry): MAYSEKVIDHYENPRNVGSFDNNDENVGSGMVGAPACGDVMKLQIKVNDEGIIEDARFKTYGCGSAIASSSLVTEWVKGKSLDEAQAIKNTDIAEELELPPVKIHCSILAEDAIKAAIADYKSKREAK

IscS, sequence (P0A6B7 whole entry): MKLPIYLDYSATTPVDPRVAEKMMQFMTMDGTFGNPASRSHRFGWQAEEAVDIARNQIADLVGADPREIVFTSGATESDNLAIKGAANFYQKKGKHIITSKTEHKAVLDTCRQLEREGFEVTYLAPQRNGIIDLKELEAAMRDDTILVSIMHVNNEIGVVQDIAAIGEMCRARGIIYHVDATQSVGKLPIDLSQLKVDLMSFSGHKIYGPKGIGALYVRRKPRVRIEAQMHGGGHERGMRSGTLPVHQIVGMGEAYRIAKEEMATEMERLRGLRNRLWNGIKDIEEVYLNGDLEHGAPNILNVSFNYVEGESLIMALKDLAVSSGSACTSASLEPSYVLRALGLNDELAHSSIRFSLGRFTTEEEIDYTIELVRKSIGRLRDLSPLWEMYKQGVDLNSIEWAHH
Ferrochelatase (Homo sapiens), sequence (P22830 55-423): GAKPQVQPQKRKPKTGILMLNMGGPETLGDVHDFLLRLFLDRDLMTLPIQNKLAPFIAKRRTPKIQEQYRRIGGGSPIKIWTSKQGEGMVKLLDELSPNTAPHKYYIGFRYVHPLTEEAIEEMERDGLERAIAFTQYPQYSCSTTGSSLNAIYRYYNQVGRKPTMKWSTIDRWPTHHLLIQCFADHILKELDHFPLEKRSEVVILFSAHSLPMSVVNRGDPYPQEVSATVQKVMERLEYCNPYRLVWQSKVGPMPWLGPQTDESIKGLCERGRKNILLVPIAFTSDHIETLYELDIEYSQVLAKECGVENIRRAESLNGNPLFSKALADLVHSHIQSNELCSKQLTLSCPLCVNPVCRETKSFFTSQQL

Row | Substance | Kd [1] [nM] | Kd [2] [nM]
1 | Frataxin (from UniProt Q16595) | 17 | –
2 | IscS (from UniProt P0A6B7) | – | 2000
